Experimental data: patent US20090203538A1 (INSTITUTE FOR ANTIBODIES, published 2009)

B1: 015-209 antibody (antibody, V domains shown)
VH: EVQLVESGAEVKKPGESLKISCKGSGYSFTSYWIGWVRQMPGKGLEWMGIIYPGDSDTRYSPSFQGQVTISADKSISTAYLQWSSLKASDTAMYYCARLAVGAYQYYFDYWGQGTLVTVSR
VL: QTVVTQEPSFSVSPGGTVTLTCGLSSGSVSTSYYPSWYQQTPGQAPRTLIYSTNTRSSGVPDRFSGSILGNKAALTITGAQADDESDYYCVLYMGSGISVFGGGTKLTVLG
notes: Clone of the scFv-CL-cp3 phage library
B2: 086-061 antibody (antibody, V domains shown)
VH: QVQLVQSGAEVKKPGESLKISCKGSGYSFTSYWIGWVRQMPGKGLEWMGIIYPGDSDTRYSPSFQGQVTISADKSISTAYLQWSSLKASDTAMYYCARHNSNYYYYYMDVWGKGTLVTVSR
VL: QTVVTQEPSFSVSPGGTVTLTCGLSSGSVSTSYYPSWYQQTPGQAPRTLIYSTNTRSSGVPDRFSGSILGNKAALTITGAQADDESDYYCVLYMGSGISVFGGGTKLTVLG
notes: as for B1
B3: 053-216 antibody (antibody, V domains shown)
VH: EVQLVESGGGLIRPGGSLRLSCTASGFTFSSYTMNWVRQAPGKGLEWLSYISGGSGTKFYADSVKGRFTVSRDNAKNSLYLEMNSLRPEDTAVYYCALVSYSSPGFDYWGQGTLVTVSS
VL: SYELTQPPSVSVSPGQTASITCSGDKLGDKYVYWYQQKPGQSPILLIFQDSERPSGIPERFSGSNSGNTATLTISGTQAMDEADYYCQAWDSSAAVFGGGTKLTVLG
notes: as for B1
B4: 015-136 antibody (antibody, V domains shown)
VH: QVQLVQSGSELKKPGASVKVSCKASGYIFTRYGINWVRQAPGQGLEWMGWINTNTGNPTYAQGFTGRVVFSLDTSVSTAYLQISSLKAEDTAMYYCAISSGFGYYFDYWGQGTLVTVSR
VL: DIQMTQSPSSVSASVGDRVTITCRASQSISRWLAWYQQKPGKAPKFLIYAGSSLQSGVPSRFSGSGSGTDFTLTISSLQPEDFATYYCQQTNSFPLTFGGGTKVEIK
notes: as for B1
B5: 015-102 antibody (antibody, V domains shown)
VH: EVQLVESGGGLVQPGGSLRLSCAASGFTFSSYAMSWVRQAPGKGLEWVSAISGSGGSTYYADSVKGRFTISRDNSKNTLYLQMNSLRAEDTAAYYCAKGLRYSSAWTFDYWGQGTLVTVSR
VL: QSALTQPASVSGSPGQSITISCTGTSSDVGGYNYVSWYQQHPGKAPKLMIYDVSNRPSGVSNRFSGSKSGNTASLTISGLQAEDEADYYCSSYTSSSTPVVFGGGTKLTVLG
notes: as for B1
B6: 015-143 antibody (antibody, V domains shown)
VH: QVQLVQSGAEVKKPGASVKVSCKASGYTFTSYGISWVRQAPGQGLEWMGWISAYNGNTNYAQKLQGRVTMTTDTSTSTAYMELRSLRSDDTAVYYCARAFRDWGSLRDYWGQGTLVTVSR
VL: QSVLTQPPSVSAAPGQKVTISCSGSSSNIGNNYVSWYQQLPGTAPKLLIYDNNKRPSGIPDRFSGSKSGTSATLGITGLQTGDEADYYCGTWDSSLSAVVFGGGTKLTVLG
notes: as for B1
B7: 015-044 antibody (antibody, V domains shown)
VH: QVQLQESGPGLVKPSETLSLTCTVSGGSISSSSYYWGWIRQPPGKGLEWIGSIYYSGSTYYNPSLKSRVTISVDTSKNQFSLKLSSVTAADTAVYYCAMRAYGSGSYDYWGQGTLVTVSR
VL: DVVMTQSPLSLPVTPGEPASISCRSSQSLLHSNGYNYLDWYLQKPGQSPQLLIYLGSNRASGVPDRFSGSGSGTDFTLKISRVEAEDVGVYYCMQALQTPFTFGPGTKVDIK
notes: as for B1
B8: 039-016 antibody (antibody, V domains shown)
VH: EVQLVESGGNLVQPGGSLRLSCAASGFTFSRYWMTWVRQAPGKGLEWISSVSSSGSTIYYADSVKGRFTISRDNAKNSLYLQMNSLRVEDTAVYYCARDYWPGWYFDLWGRGTLVTVSR
VL: QAVLTQPSSLSASPGASASLTCTFRSDISVGSYRIYWYQQKPGSPPQFLLKYTSDSDKQQGSGVPSRFSGSKDVSANAGILLISGLQSEDEADYYCMTWHNTASVFGGGTKLAVLG
notes: as for B1
B9: 075-110 antibody (antibody, V domains shown)
VH: EVQLVESGGGLVQPGGSLRLSCSASGFTFSNYWMTWVRQAPGKGLEWISSISSSGSTIYYADSVKGRFTISRDNAKNSLYLQMNSLRVEDTAVYYCARDYWPGWYFDLWGRGTLVTVSR
VL: QAVLTQPSSLSASPGASASLTCTFRSDISVGSYRIYWYQQKPGSPPQFLLKYTSDSDKQQGSGVPSRFSGSKDVSANAGILLISGLQSEDEADYYCMTWHNTASVFGGGTKLAVLG
notes: as for B1

The binders below were run against T1, HER2 (Homo sapiens (Human), UniProt P04626 23-1255) (assay: antigen assigned by the filing's classifying and identification method; details for this clone not given).
T1 construct: Native protein on cancer cell lines; also called erbB-2; ErbB2
B1: binds.
B2: binds.
B3: binds.
B4: binds.
B5: binds.
B6: binds.
B7: binds.
B8: binds.
B9: binds.
